For experiment [1], the target named is T1, selinexor-conjugated XPO1 (human, UniProt O14980 1-1071, Cys528 covalently conjugated to selinexor (KPT-330)). The experiment in a line: cryo-EM structure.
For another experiment, the target named is KPT-185-conjugated XPO1 (human, UniProt O14980 1-1071, Cys528 covalently conjugated to KPT-185). The experiment in a line: cryo-EM structure.
A further experiment deals with KPT-127-conjugated XPO1 (human, UniProt O14980 1-1071, Cys528 covalently conjugated to KPT-127). Put plainly: cryo-EM structure.
Chain of KPT-127-conjugated XPO1 (O14980 whole entry): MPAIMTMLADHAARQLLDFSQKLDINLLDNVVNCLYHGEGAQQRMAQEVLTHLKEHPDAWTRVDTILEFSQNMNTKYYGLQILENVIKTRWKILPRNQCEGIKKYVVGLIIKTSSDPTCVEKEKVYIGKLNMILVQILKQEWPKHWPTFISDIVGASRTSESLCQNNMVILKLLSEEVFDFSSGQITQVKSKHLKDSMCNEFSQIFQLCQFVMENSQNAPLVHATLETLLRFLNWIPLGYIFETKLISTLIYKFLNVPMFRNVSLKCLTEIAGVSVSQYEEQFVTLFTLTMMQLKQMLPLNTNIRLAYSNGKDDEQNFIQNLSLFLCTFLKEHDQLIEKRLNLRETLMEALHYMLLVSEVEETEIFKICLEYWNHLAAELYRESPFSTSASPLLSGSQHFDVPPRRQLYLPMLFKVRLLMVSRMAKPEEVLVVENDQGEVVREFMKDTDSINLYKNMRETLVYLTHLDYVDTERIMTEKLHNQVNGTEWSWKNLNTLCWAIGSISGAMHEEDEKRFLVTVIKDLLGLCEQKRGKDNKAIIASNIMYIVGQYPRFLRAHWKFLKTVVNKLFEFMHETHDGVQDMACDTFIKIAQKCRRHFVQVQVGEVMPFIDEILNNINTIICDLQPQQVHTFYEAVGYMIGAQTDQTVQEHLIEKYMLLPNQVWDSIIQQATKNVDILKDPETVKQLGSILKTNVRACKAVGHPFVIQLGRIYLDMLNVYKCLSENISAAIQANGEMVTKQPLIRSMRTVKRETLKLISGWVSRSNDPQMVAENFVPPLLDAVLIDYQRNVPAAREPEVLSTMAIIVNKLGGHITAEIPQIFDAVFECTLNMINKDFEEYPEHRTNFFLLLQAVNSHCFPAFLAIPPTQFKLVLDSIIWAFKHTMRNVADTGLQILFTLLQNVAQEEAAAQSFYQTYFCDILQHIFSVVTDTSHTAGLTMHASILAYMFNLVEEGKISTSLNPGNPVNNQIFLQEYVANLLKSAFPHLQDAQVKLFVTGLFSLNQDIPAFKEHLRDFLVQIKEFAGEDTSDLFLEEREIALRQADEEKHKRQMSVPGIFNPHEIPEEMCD
In experiment [2] the target is KPT-UTSW1-conjugated XPO1 (human, UniProt O14980 1-1071). Put plainly: cryo-EM structure.
Chain of KPT-UTSW1-conjugated XPO1 (O14980 whole entry): as above
The target in experiment [3] is exportin 1 (XPO1), unliganded (human, UniProt O14980 1-1071). The experiment in a line: ITC. For orientation: Isothermal titration calorimetry measures the heat released or taken up as one component is titrated into another.
Chain of exportin 1 (XPO1), unliganded (O14980 whole entry): as above
For experiment [4], the target named is T1, selinexor-conjugated XPO1. The experiment in a line: ITC.

Numbering of substitutions follows the chain as printed. Names may count otherwise.

T1 sequence (O14980 whole entry): as above
Chain of KPT-185-conjugated XPO1 (O14980 whole entry): as above

B1: ASB8^ΔN16 (domain or fragment)
chain: SLSERLIRTIAAIRSFPHDNVEDLIRGGADVNCTHGTLKPLHCACMVSDADCVELLLEKGAEVNALDGYNRTALHYAAEKDEACVEVLLEYGANPNALDGNRDTPLHWAAFKNNAECVRALLESGASVNALDYNNDTPLSWAAMKGNLESVSILLDYGAEVRVINLIGQTPISRLVALLVRGLGTEKEDSCFELLHRAVGHFELRKNGTMPREVARDPQLCEKLTVLCSAPGTLKTLARYAVRRSLGLQYLPDAVKGLPLPASLKEYLLLLE
Turning to B1, the binding result (in experiment [1]; in the experiment with KPT-185-conjugated XPO1; with KPT-127-conjugated XPO1; in experiment [2]) was “binds” in each case.

B2: ASB8^ΔN16•ELOB/C (complex)
chain 1: B1 chain
chain 2: […]
chain 3: […]
The term Kd denotes a measure of binding affinity in units of concentration. A high value points to lower affinity. Take B2: the values for the equilibrium dissociation constant (Kd) in experiment [3] and in experiment [4] were 11000 nM and 29 nM, respectively.

B3: ASB8^ΔN16/R197A (domain or fragment)
chain: B1 chain with R181A
Take B3: in experiment [1], the binding result is reported as “binds”.

B4: ASB8^ΔN16/R197A•ELOB/C (complex)
chain 1: B1 chain with R181A
chain 2: […]
chain 3: […]
In turn, B4 registered a dissociation constant (Kd) in experiment [4] of 58 nM.

Source of the values: doi:10.1101/2024.10.07.617049 (bioRxiv, 2024).
